According to US11267871B2, “Topical application for an anti-HSV antibody” (priority 2014, dated 2022):

What was measured:
[1] = tested on: recurrent herpes labialis; settings: 5 times per day for 4 days, cited from earlier work
[2] = tested on: HSV-2 G; assay: Topical treatment of acute genital HSV-2 infection in immunodeficient mice (survival, clinical score); format: in vivo, mice (NOD.CB17-Prkdc^scid/NCrHsd); settings: for mice with acute genital HSV-2 infection / local genital symptoms resolved at 48 h (number) / mice with acute genital HSV-2 infection / local genital symptoms resolved at 48 h (percent): 48 h after start of topical treatment, ACV 1 mg twice per day ongoing; for mice with acute genital HSV-2 infection / local genital symptoms resolved at 48 h (number) / mice with acute genital HSV-2 infection / local genital symptoms resolved at 48 h (percent) / mice in which HSV-2 lethal encephalitis was prevented: hu2c single 200 μg; for mice in which HSV-2 lethal encephalitis was prevented: topical, ACV 1 mg twice per day for 4 days
Description: FIG. 1: compares the survival of immunodeficient mice with acute genital HSV-2 infection after topical treatment either with the humanized monoclonal antibody hu2c or acyclovir. Female mice (NOD.CB17-Prkdc^scid/NCrHsd) were treated with a long-acting progestin (Depo-Clinovir, Pharmacia) 7 days prior to viral challenge to increase susceptibility to HSV-2 infection and to eliminate differences caused by the estrous cycle. Anesthetized mice were vaginally challenged with a lethal dose of 5×10^5 PFU of HSV-2 G (20 μl). Mice displaying visible infection (perineal hair loss, reddening, swelling) were treated one day after viral challenge (A) once with 40 μl hu2c (5 mg/ml) (●) or 40 μl control IgG (5 mg/ml) (□) or (B) twice daily for 4 days with 40 μl ACV (25 mg/ml) (Δ) or 40 μl PBS (x). Drug solutions or PBS were applied topically to the outer genital epithelium. Mice were monitored for 36 days after viral inoculation. Mice displaying sever systemic signs and/or severe lesions/zoster were killed. Surviving mice were sacrificed at day 36. Test groups contained eight animals each, control groups contained five animals each. Kaplan-Meier survival curves were analyzed by log-rank (Mantel-Cox) test. Two-tailed significance tests were used to compare the significance level between two groups. All protocols were approved by the Animal Care and Use Committee.
Mice displaying visible infection (perineal hair loss, reddening, swelling) one day after intravaginal challenge with a lethal dose of 5×10^5 PFU of HSV-2 G (20 μl) were treated (A & C) twice daily for 4 days with (A) 40 μl PBS or (C) 40 μl ACV (25 mg/ml), or treated (B & D) once at 24 h post infection with (B) 40 μl hu2c (5 mg/ml) or (D) 40 μl control IgG (5 mg/ml). Drug solutions or PBS were applied topically to the outer genital epithelium.
Infected animals were observed daily and their clinical status was scored as follows: 0, lack of symptoms, no lesions; 1-2, redeness and/or swelling (erosion); 3, localized lesion <1 mm; 4-5, localized lesion 2-3 mm; 6-7 localized lesion 4-5 mm; 8-9, severe hyperemia, destruction of the epithelium and stroma with necrosis; 10, systemic signs, death. Animals with grading >8 were killed to prevent undue suffering. Test groups contained eight animals each, control groups contained five animals each. Arrows indicate time points of treatment.
• The ability of the humanized monoclonal antibody hu2c to alter the clinical course of acute genital HSV-2 infection in immunodeficient mice following a single topical treatment with 200 μg mAb hu2c (5 mg/ml) was investigated. To infect 100% of mice as assessed by visible lesions and culture of vaginal lavage, a viral inoculum of 5×10^5 PFU of HSV-2 G was delivered to the vagina of anesthetized mice. • Although acute HSV-1 or HSV-2 infections result in a fatal outcome in 100% of mice with severe combined immunodeficiency when compared to 70-90% mortality in immunocompetent mice, the immunodeficient model has nevertheless been chosen to discriminate a possible clinical efficacy of the therapy from an elimination of the viral infection due to immune effector cells of the mouse (Minagawa et al., Arch Virol 103, 73-82 (1988); Nagafuchi et al., J Gen Virol 44, 715-723 (1979)). Within genital mucosa the expansion rates of HSV-2 are extremely rapid. At 24 h after viral challenge infected mice received topically at the infected area either twice per day for 4 days 1 mg acyclovir (ACV) (25 mg/ml) or 40 μl buffer (PBS) or a single treatment of 200 μg mAb hu2c (5 mg/ml) or 200 μg control mAb (5 mg/ml). Clinical efficacy of the HSV-specific mAb was compared to the irrelevant mAb (isotypcontrol), ACV and PBS treatment by means of Kaplan-Meier survival curves and daily assessment of the clinical status of the mucous membranes of the genital and anal area. […]

[3] = tested on: oral herpes infection (HSV-1 or HSV-2, type not analyzed); assay: Topical application of humanized anti-HSV antibody in volunteers with acute recurrence of oral herpes (cold sores); format: in vivo, human
Description: 1.2 Trial Description • Between 2010-2013, twelve healthy 30-59 year old volunteers (7 female, 5 male) with an acute recurrence of oral herpes infection (cold sores) were treated. Volunteers presented themselves when the onset of initial HSV symptoms (itching of the lips, burning or tingling near the lips or mouth area) occurred or had progressed to visible skin disorders on the outer lips. […] However, sometimes HSV-2 is spread to the mouth during oral sex, causing oral herpes. The type of HSV infection (HSV-1 or HSV-2) was not analyzed. • The antibody was packaged as sterile solutions either in PBS or PBS/ash créme (1:1) at concentrations of 0.7-1 mg/ml. Participants applied approx. 10 μl of the antibody topically once, once per day for two days or for a total of three times maximum.
2. Results • ZOVIRAX Cream had been evaluated in 2 double-blind, randomized, placebo (vehicle)-controlled trials (see Zovirax N-. Zovirax Prescribing Information. http://wwwaccessdatafdagov/drugsatfda_docs/label/2002/21478_zovirax_Ib|pdf#page=1&zoom=auto,0,792). • In the Zovirax studies, subjects were instructed to initiate treatment within 1 hour of noticing signs or symptoms and continue treatment for 4 days, with application of study medication 5 times per day. […] At time of treatment several small blisters were visible. For the antibody treated HSV infection a quick recovery was observed.

[4] = 72 h after commencement of ACV treatment
[5] = one volunteer, upper lip, antibody three times

| Molecule | reduction of episode duration compared with placebo [1] | mean duration of the recurrent herpes labialis episode ([1]; placebo 5 days) | mice with acute genital HSV-2 infection / local genital symptoms resolved at 48 h (number) [2] | mice with acute genital HSV-2 infection / local genital symptoms resolved at 48 h (percent) [2] | mice with no local signs at 72 h (number) [2, 4] | mice with no local signs at 72 h (percent) [2, 4] | mice in which HSV-2 lethal encephalitis was prevented [2] | spread of the infected area upon treatment ([3]; all participants) | fast symptom and pain relief after application ([3]; all participants, approx. 10 μl of 0.7-1 mg/ml, one to three applications) | overall rates of clinical reactivation (participants' impression) ([3]; human, in vivo) | occurrence of lesions ([3]; one volunteer, upper lip) | time to disappearance of blisters [3, 5] | time until swelling subsided [3, 5] | healing when treatment started at stage of visible external herpetic lesions ([3]; participants' report) | course of active blisters ([3]; participants' report or one volunteer with upper lip (antibody) and lower lip (Zovirax)) | time to elimination of the infection ([3]; topical administration, acute infection of the tissue of the lips) |
| --- | --- | --- | --- | --- | --- | --- | --- | --- | --- | --- | --- | --- | --- | --- | --- | --- |
| Nc1nc(=O)c2ncn(COCCO)c2[nH]1 [ACV, 2-Amino-9-(2-hydroxyethoxymethyl)-3H-purin-6-on] | 0.5 days | 4.5 days | 1 out of 8 | 13% | 5 out of 8 | 63% | 1 out of 8 |  |  |  |  |  |  |  |  |  |
| mAb hu2c: humanized derivative of murine mAb 2c recognizing glycoprotein B of HSV-1/2; CDRs grafted into DP28/DPK13, human γ1 and κ constant chains (antibody, V domains shown, VH of the humanized mAb hu2c antibody; VL of the humanized mAb hu2c antibody, humanized derivative of murine mAb 2c recognizing glycoprotein B of HSV-1/2; CDRs grafted into DP28/DPK13, human γ1 and κ constant chains) VH: QVTLKESGPALVKPTQTLTLTCTFSGFSLSTSGMSVGWIRQPPGKALEWLAHIWWNNDKYYKPALKSRLTISKDTSKNQVVLTMTNMDPVDTATYYCARIYYGYRPYAMDYWGQGTLVTVSS VL: DIVMTQTPLSLPVTPGEPASISCRSSQSIVHSNGNTYLEWYLQKPGQSPQLLIYKVSNRFSGVPDRFSGSGSGTDFTLKISRVEAEDVGVYYCFQGSHVPWSFGQGTKVEIKR |  |  | 7 out of 8 | 88% |  |  | 1 out of 8 | did not spread | ≤ 24 h | tend to be reduced | no lesions occurred | ≤ 24 h | ≤ 48 h | rapid healing and disappearance of crusted areas | regressed and did not turn into weeping blisters | ≤ 24 h |
